# Measured values reported in US20240010721A1 (HARBOUR BIOMED SHANGHAI, published 2024).
# What was measured:
# [1] = target: T1, human ROR1 (hROR1) on cells (human, UniProt Q01973 30-937); assay: FACS, HEK293T-hROR1 cells
# T1 construct: whole, on cells; the cell line is named under assay; also called HEK293T-hROR1; 293T-hROR1
# Protocol: (§1) The binding properties were characterized by FACS. The recombinant antibodies obtained above were serially diluted to 9 different concentrations and incubated for 1 h, and then determined for the binding ability with HEK293T-hROR1, CHO-K1-cynoROR1 and A549 cell lines (endogenously expressing ROR1), respectively. The secondary antibody was then incubated for 1 h. The results are shown in FIG. 4-6 and Table 7-2 below.
# [2] = target: T1, human ROR1 (hROR1) on cells; assay: FACS, HEK293T-hROR1 cells; cytometer saturated
# Protocol: as §1
# hROR2ECD-his [3] = target: T2, hROR2ECD-his (human, UniProt Q01974 34-403); assay: ELISA, plate coated with hROR2 ECD-his
# T2 construct: extracellular domain; bought, Acrobiosystems R02-H52E5; also called huROR2-his
# T2 sequence (Q01974 34-403): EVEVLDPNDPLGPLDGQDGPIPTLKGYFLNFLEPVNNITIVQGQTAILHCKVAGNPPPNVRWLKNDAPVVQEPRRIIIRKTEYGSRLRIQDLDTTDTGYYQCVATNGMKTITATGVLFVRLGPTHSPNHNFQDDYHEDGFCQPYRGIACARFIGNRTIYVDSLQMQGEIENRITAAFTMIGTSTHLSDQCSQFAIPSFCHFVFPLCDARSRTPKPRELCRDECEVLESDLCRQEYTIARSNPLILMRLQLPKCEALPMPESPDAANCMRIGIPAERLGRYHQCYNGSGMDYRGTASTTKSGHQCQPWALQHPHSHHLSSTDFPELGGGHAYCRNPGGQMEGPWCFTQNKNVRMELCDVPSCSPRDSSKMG
# Protocol: (§2) Screening by ELISA assay: 96-well plates (Corning 9018) were coated with 1 μg/mL hROR1 ECD-his/hROR2 ECD-his/mROR1 ECD-his proteins prepared with PBS in Example 1a above and incubated at 4° C. overnight. The liquid was then discarded, and the plates were washed 3 times with PBST, blocked with 5% milk for 2 h at room temperature, and washed 3 times with PBST. The taken supernatant was added at 100 μL/well, and the plates were incubated at room temperature for 1 h, followed by washing 3 times with PBST. 100 μL/well of secondary antibody (Sigma, Cat#: A8592) was added, the plates were incubated at room temperature for 1 h, and then washed. TMB was then added to the plates at 100 μL/well and incubated for 15 min at room temperature. Thereafter, the reaction was terminated and data were read.
# (§3) a. Results of ELISA assay (the ELISA assay was performed according to the same procedures as in Example 2c, except that the added samples were recombinant antibodies and the secondary antibody was a-Fc (Genscript, Cat#: A01854))
# hROR2ECD-his [4] = target: T2, hROR2ECD-his; assay: ELISA, plate coated with hROR2 ECD-his; remark: listed apart in the source
# Protocol: as §2, §3
# The corresponding values in the table are the measured median fluorescence intensity (MFI).
# [5] = target: T3, cynomolgus ROR1 (cynoROR1) on CHO-K1 cells (cynomolgus, UniProt A0A2K5WTX7 30-937); assay: FACS, CHO-K1-cynoROR1 cells
# T3 construct: whole, on cells; also called CHO-K1-cynoROR1; CHO-K1-cyROR1
# Protocol: as §1
# [6] = target: T1, human ROR1 (hROR1) on cells; assay: FACS, A549 cells
# Protocol: as §1
# [7] = target: ROR1 (antigen of the KD determination and of the Octet dissociation measurement) (UniProt Q01973 30-403, limits assumed); assay: method not stated (conventional procedures)
# Sequence of ROR1 (antigen of the KD determination and of the Octet dissociation measurement) (Q01973 30-403 limits assumed): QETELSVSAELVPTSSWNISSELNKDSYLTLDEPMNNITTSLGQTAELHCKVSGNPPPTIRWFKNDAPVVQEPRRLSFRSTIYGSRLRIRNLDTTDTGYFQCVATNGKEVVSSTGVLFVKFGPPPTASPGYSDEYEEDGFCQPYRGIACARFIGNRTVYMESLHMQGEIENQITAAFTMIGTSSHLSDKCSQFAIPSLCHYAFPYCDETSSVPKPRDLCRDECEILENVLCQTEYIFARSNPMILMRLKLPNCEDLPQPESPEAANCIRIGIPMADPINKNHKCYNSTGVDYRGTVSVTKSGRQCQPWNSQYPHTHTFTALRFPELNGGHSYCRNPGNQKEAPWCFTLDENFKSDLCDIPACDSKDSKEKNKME
# Human ROR1-ECD-his = target: T4, Human ROR1-ECD-his (human, UniProt Q01973 30-406); assay: ELISA, plate coated with hROR1 ECD-his
# T4 construct: extracellular domain; bought, Acrobiosystems RO1-H522y; also called hROR1-ECD-his; hROR1 ECD-his
# T4 sequence (Q01973 30-406): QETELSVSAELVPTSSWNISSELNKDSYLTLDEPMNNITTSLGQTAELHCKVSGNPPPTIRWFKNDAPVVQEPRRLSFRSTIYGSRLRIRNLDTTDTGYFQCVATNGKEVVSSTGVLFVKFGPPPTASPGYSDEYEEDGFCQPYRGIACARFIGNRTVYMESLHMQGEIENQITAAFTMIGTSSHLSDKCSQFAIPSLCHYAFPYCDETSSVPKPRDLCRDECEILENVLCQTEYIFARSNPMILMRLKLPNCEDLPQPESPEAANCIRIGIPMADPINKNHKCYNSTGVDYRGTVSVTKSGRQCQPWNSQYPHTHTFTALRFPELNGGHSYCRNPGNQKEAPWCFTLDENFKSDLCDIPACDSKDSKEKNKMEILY
# Protocol: as §2, §3
# T1 sequence (Q01973 30-937): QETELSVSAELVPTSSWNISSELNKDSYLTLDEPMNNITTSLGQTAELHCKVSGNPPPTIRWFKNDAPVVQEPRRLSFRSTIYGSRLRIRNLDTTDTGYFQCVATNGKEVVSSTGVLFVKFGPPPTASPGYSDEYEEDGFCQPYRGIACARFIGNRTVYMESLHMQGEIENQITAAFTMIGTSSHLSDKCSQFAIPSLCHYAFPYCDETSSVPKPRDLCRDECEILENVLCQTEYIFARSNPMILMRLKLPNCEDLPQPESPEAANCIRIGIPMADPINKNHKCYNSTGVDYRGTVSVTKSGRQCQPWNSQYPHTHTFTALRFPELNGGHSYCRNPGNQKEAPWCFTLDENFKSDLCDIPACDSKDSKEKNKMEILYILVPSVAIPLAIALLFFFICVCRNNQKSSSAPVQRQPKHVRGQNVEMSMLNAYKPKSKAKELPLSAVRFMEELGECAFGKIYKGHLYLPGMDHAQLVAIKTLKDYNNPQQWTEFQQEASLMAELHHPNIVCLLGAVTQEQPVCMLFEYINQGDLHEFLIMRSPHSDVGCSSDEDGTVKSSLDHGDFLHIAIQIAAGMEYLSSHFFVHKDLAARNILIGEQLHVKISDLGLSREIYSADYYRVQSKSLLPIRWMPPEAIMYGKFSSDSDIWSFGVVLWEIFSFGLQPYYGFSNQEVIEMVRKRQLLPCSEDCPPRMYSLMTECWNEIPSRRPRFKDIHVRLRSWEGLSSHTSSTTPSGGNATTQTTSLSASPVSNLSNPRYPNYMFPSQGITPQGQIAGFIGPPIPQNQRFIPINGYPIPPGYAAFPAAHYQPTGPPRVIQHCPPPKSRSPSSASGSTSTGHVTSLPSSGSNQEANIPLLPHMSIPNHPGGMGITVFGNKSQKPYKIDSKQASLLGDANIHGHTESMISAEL
Binder,fold lower EC50 than reference PR000374 [1],MAX(MFI) [2],ELISA signal (called MFI) (hROR2ECD-his [3]),binding result (hROR2ECD-his [4]),MAX(MFI) [5],MAX(MFI) [6],Kd [7],koff [7],kon [7],ELISA signal (called MFI) (Human ROR1-ECD-his)
"PR001365 (antibody, human IgG1, kappa, V domains shown, fully human IgG1, kappa) VH: QVQLVQSGGGVVQPGRSLRLSCAASGFTFSSYGMHWVRQAPGKGLEWVAVIWYDGSDKDYADSVKGRFTISRDTSKNTLYLQMNSLRAEDTAVYYCAREQARSFDLWGRGTLVTVSS VL: DIQMTQSPYSLSASVGDRVTITCRASQTINNWLAWYQQKPGKAPKLLIYKASSLESGVPSRFSGSGSGTEFTLTISSLQPDDFATYYCQQYKLYSPMYTFGQGTKVEIKR",10 fold,262000 MFI,0.0285,no binding,22100 MFI,4400 MFI,0.237 nM,7.72e-05 s⁻¹,325000 M⁻¹ s⁻¹,2.35
"PR001352 (antibody, human IgG1, kappa, V domains shown, fully human IgG1, kappa) VH: EVQLLESGGGVVQPGRSLRLSCAASGFTFSSYGMHWVRQAPGKGLEWVAVKWYDGISQNFADSVKGRFTISRDNSKNTLYLQMNSLRAEDTAVYYCARDLARSFDLWGRGTLVTVSS VL: DIQLTQSPSSLSASVGDRVTITCRASQTINNWLAWYQQKPGKAPKLLIYKASSLESGVPSRFSGSGSGTEFTLTISSLQPDDFATYYCQQYNSYSPMYTFGQGTKVEIKR",10 fold,262000 MFI,0.0335,no binding,30700 MFI,4520 MFI,1.51 nM,0.000476 s⁻¹,316000 M⁻¹ s⁻¹,2.48
"PR001366 (antibody, V domains shown, fully human IgG1, kappa) VH: QVQLVESGGGVVQPGRSLRLSCTASGFTFSSYGMHWVRQAPGKGLEWVAVKWYDGISQNFADSVKGRFTISRDNSKNTLYLQMNSLRAEDTAVYYCARDLARSFDIWGRGTLVTVSS VL: DIQLTQSPSTLSASVGDRVTITCRASQSINSWLAWYQQKPGKAPKLLIYKASSLESGVPSRFSGSGSGTEFTLTISSLQPDDFATYYCQQYKSYSPMYTFGQGTKVDIKR",10 fold,262000 MFI,0.0305,no binding,23300 MFI,4750 MFI,1.67 nM,0.00075 s⁻¹,448000 M⁻¹ s⁻¹,2.24
"PR001358 (antibody, human IgG1, kappa, V domains shown, fully human IgG1, kappa) VH: QVQLVQSGGGVVQPGRSLRLSCAASGFTFSSYAMHWVRQAPGKGLEWVAIMWYDGSNTDYADSVKGRFTISRDTSKNTLFLQMNSLRAEDTAVYYCAREQARSFDLWGRGTLVTVSS VL: DIVMTQSPSTLSASVGDRVTITCRASQSINSWLAWYQQKPGKAPKLLIYKASNLESGVPSRFSGSGSGTEFTLTISSLQPDDFATYYCQQYKSYSPMYTFGQGTKVDIKR",10 fold,262000 MFI,0.049,no binding,27300 MFI,4970 MFI,1.07 nM,0.000518 s⁻¹,482000 M⁻¹ s⁻¹,2.47
"PR001370 (antibody, V domains shown, fully human IgG1, kappa) VH: EVQLLESGGGVVQPGRSLRLSCAASGFTFSSYGMHWVRQAPGKGLEWVAVKWYDGISQNFADSVKGRFTISRDNSKNTLYLQMNSLRAEDTAVYYCARDLARSFDLWGRGTLVTVSS VL: DIVMTQSPSTLSASVGDRVTITCRASQSINNWLAWYQQKPGKAPKLLIYKASSLESGVPSRFSGSGSGTEFTLTISSLQPDDFATYYCQQYNSYSPMYTFGQGTKVDIKR",10 fold,262000 MFI,0.0335,no binding,26000 MFI,3920 MFI,3.97 nM,0.00113 s⁻¹,285000 M⁻¹ s⁻¹,2.53
"PR001361 (antibody, V domains shown, fully human IgG1, kappa) VH: QVQLVQSGGGVVQPGRSLRLSCTASGFTFSRYGMLWVRQAPGKGLEWVAVAWYDGVSEDYADSVKGRFTISRDNSMNTLSLQMNSLRAEDTAVYYCAREQARSFDLWGRGTLVTVSS VL: DIQLTQSPSTLSASVGDRVTITCRASQSINSWLAWYQQKPGKAPKLLIYKASSLESGVPSRFSGSGSGTEFTLTISSLQPDDFATYYCQQYKSYSPMYTFGQGTKVDIKR",10 fold,262000 MFI,0.028,no binding,27200 MFI,4520 MFI,1.83 nM,0.00108 s⁻¹,590000 M⁻¹ s⁻¹,2.28
"PR001368 (antibody, V domains shown, fully human IgG1, kappa) VH: QVQLVESGGGVVQPGRSLRLSCAASGFTFSTYGMHWVRQAPGKGLEWVAVIWYDGSDTDYADSVKGRFTISRDTSKNTLYLQMNSLRAEDTAVYYCAREQARSFDLWGRGTLVTVSS VL: DIVMTQSPSTLSASVGDRVTITCRASQSINSWLAWYQQKPGKAPKLLIYKASSLESGVPSRFSGSGSGTEFTLTISSLQPDDFATYYCQQYKSYSPMYTFGQGTKVEIKR",10 fold,262000 MFI,0.0255,no binding,27800 MFI,4210 MFI,2.16 nM,0.000867 s⁻¹,402000 M⁻¹ s⁻¹,2.51
"PR001367 (antibody, human IgG1, kappa, V domains shown, fully human IgG1, kappa) VH: QVQLVESGGGVVQPGRSLRLSCAASGFSFSSYAMHWVRQAPGRGLEWVAVIWYDGGDEDYIDSVKGRFTISRDDSKNTLYLQMNSLRAEDTAVYYCAREQARSFDLWGRGTLVTVSS VL: DVVMTQSPSTLSASVGDRVTITCRASQTINNWLAWYQQKPGKAPKLLIYKASSLESGVPSRFSGSGSGTEFTLTISSLQPDDFATYYCQQYNSYSPMYTFGQGTKVEIKR",10 fold,262000 MFI,0.0235,no binding,21200 MFI,3450 MFI,3.06 nM,0.00104 s⁻¹,341000 M⁻¹ s⁻¹,2.38
"PR001371 (antibody, human IgG1, kappa, V domains shown, fully human IgG1, kappa) VH: QVQLVESGGGVVQPGRSLRLSCAASGFTFSSYGMLWVRQAPGKGLEWVAVAWYDGVSEDYADSVKGRFTISRDNSMNTLSLQMNSLRAEDTAVYYCAREQARSFDLWGRGTLVTVSS VL: DIQLTQSPSSLSASVGDRVTITCRASQTINNWLAWYQQKPGKAPKLLIYKASSLESGVPSRFSGSGSGTEFTLTISSLQPDDFATYYCQQYNSYSPMYTFGQGTKVEIKR",10 fold,262000 MFI,0.0235,no binding,28400 MFI,4110 MFI,1.76 nM,0.000525 s⁻¹,298000 M⁻¹ s⁻¹,2.38
